For one molecule, stoichiometry N results are on record in publication PMC11148119.

In this assay the target is T1, Full-length rat TRPV2 with a C-terminal 1D4 tag, reconstituted into MSP2N2 nanodiscs (rat), Q9WUD2.
T1 chain: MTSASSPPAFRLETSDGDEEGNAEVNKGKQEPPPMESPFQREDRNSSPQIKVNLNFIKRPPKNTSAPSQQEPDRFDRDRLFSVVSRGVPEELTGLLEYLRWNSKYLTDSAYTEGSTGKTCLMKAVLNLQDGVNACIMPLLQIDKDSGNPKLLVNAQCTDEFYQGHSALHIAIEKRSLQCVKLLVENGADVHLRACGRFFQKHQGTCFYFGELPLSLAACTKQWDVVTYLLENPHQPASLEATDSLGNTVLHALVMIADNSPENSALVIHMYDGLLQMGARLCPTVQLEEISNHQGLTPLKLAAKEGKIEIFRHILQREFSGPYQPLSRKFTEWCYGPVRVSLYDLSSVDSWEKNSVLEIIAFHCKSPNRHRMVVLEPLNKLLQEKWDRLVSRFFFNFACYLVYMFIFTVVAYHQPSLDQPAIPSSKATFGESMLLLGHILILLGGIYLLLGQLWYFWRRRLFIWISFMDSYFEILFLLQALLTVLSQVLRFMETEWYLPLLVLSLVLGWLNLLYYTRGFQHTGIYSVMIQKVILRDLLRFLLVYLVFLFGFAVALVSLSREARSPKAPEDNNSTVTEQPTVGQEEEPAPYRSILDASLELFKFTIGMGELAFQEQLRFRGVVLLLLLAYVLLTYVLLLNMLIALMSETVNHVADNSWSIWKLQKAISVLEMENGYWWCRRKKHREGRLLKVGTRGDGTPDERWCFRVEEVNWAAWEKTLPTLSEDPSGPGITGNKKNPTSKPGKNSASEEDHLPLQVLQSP
The assay is described as follows: cryo-EM structure; rTRPV2 in MSP2N2/soy polar lipid nanodiscs; apo dataset at pH 8 (states Apo1, Apo2, Apo3) and dataset with 30 mM sodium acetate at final pH 5.0 (TRPV2_HOAc); grids prepared at 4 °C; maps refined with C4 symmetry. The conditions noted are these: remark: other sources report otherwise.

B1: Full-length rat TRPV2 with a C-terminal 1D4 tag, reconstituted into MSP2N2 nanodiscs, Q9WUD2 1-761 (natural protein)
chain: MTSASSPPAFRLETSDGDEEGNAEVNKGKQEPPPMESPFQREDRNSSPQIKVNLNFIKRPPKNTSAPSQQEPDRFDRDRLFSVVSRGVPEELTGLLEYLRWNSKYLTDSAYTEGSTGKTCLMKAVLNLQDGVNACIMPLLQIDKDSGNPKLLVNAQCTDEFYQGHSALHIAIEKRSLQCVKLLVENGADVHLRACGRFFQKHQGTCFYFGELPLSLAACTKQWDVVTYLLENPHQPASLEATDSLGNTVLHALVMIADNSPENSALVIHMYDGLLQMGARLCPTVQLEEISNHQGLTPLKLAAKEGKIEIFRHILQREFSGPYQPLSRKFTEWCYGPVRVSLYDLSSVDSWEKNSVLEIIAFHCKSPNRHRMVVLEPLNKLLQEKWDRLVSRFFFNFACYLVYMFIFTVVAYHQPSLDQPAIPSSKATFGESMLLLGHILILLGGIYLLLGQLWYFWRRRLFIWISFMDSYFEILFLLQALLTVLSQVLRFMETEWYLPLLVLSLVLGWLNLLYYTRGFQHTGIYSVMIQKVILRDLLRFLLVYLVFLFGFAVALVSLSREARSPKAPEDNNSTVTEQPTVGQEEEPAPYRSILDASLELFKFTIGMGELAFQEQLRFRGVVLLLLLAYVLLTYVLLLNMLIALMSETVNHVADNSWSIWKLQKAISVLEMENGYWWCRRKKHREGRLLKVGTRGDGTPDERWCFRVEEVNWAAWEKTLPTLSEDPSGPGITGNKKNPTSKPGKNSASEEDHLPLQVLQSP
B1 came in with a stoichiometry N of 4.

As a reminder, the stoichiometry N is the number of molecules, sites or subunits per partner or assembly.
